PMC3087488 (Journal of Oncology, 2011)
Where “and” joins values, the source holds several entries; their conditions need not be identical. Equal entries are not always repeated.

Columns and labels:
[1] = plasma gemcitabine concentration in patients; assay type: in vivo, human; details: completion of infusion, gemcitabine 1250 mg/m^2
Procedure: Plasma motesanib and gemcitabine concentrations were analyzed using a validated liquid chromatography/tandem mass spectrometry (LC-MS/MS) method, respectively. […] All pharmacokinetic parameter estimates were calculated using standard noncompartmental methods and WinNonlin Professional software on […] (Version 5.1.1, Pharsight Corporation, Mountain View, Calif, USA).

[2] = bevacizumab 15-mg/kg cohort plus carboplatin/paclitaxel; locally advanced or metastatic NSCLC; grade 3/4, n = 5; cited from earlier work
[3] = adverse events in patients (CTCAE version 3.0); assay type: in vivo, human
Procedure: Adverse events were recorded throughout the study and graded (including DLTs) according to the Common Terminology Criteria for Adverse Events, version 3.0. Samples for assessment of hematology, blood chemistry, urinalysis, and thyroid function were collected on day 1 of each cycle.

[4] = serum panitumumab concentration in patients; assay type: in vivo, human; details: panitumumab 9 mg/kg
[5] = 8 patients who received panitumumab and gemcitabine/cisplatin only
[6] = all 41 patients (7%), only in patients who also received motesanib

Nc1ccn([C@@H]2O[C@H](CO)[C@@H](O)C2(F)F)c(=O)n1 [gemcitabine]
Plasma gemcitabine concentration (cycle 1), mean (SD) ([1]; No motesanib (0 mg QD), n 8): 11000 ng/mL and 11000 (4220) ng/mL
Plasma gemcitabine concentration (cycle 1), mean (SD) ([1]; with motesanib 50 mg QD, n 8): 8450 (7310) ng/mL
Plasma gemcitabine concentration (cycle 1), mean ([1]; with motesanib 75 mg BID, n 2): 8290 (NR) ng/mL
Plasma gemcitabine concentration (cycle 1), mean (SD) ([1]; with motesanib 75 mg QD, n 6): 14400 (6020) ng/mL
Plasma gemcitabine concentration (cycle 1), mean (SD) ([1]; with motesanib 100 mg QD, n 6): 6160 (3690) ng/mL
Plasma gemcitabine concentration (cycle 1), mean (SD) ([1]; with motesanib 125 mg QD, n 11): 16100 ng/mL and 16100 (6800) ng/mL

bevacizumab
patient incidence rate of thrombotic events [2]: 17.6%

panitumumab
panitumumab-related dermatitis acneiform [3, 5]: 5 patients
panitumumab-related erythema [3, 5]: 5 patients
panitumumab-related nausea [3, 5]: 6 patients
panitumumab-related pruritus [3, 5]: 5 patients
panitumumab-related rash [3, 5]: 6 patients
panitumumab-related anemia ([3]; all 41 patients): 7 patients
panitumumab-related anorexia ([3]; all 41 patients): 11 patients
panitumumab-related diarrhea ([3]; all 41 patients): 16 patients
panitumumab-related dry skin ([3]; all 41 patients): 7 patients
panitumumab-related fatigue ([3]; all 41 patients): 19 patients
panitumumab-related hypomagnesemia ([3]; all 41 patients): 17 patients
panitumumab-related nausea ([3]; all 41 patients): 21 patients
panitumumab-related pruritus ([3]; all 41 patients): 18 patients
panitumumab-related rash ([3]; all 41 patients): 22 patients
panitumumab-related vomiting ([3]; all 41 patients): 12 patients
serious panitumumab-related diarrhea ([3]; all 41 patients (5%)): 2 patients
serious panitumumab-related dehydration ([3]; all 41 patients (7%)): 3 patients
serious panitumumab-related deep vein thrombosis [3, 6]: 3 patients
serious panitumumab-related pulmonary embolism [3, 6]: 3 patients
patients with serious panitumumab-related events ([3]; all 41 patients, eleven patients): 27%
patients who discontinued panitumumab because of adverse events ([3]; all cohorts): 11 patients
Serum panitumumab, Cycle 4 postdose mean concentration (SD) ([4]; No motesanib (0 mg QD), n 3): 275 (118) μg/mL
Serum panitumumab, Cycle 4 predose mean concentration (SD) ([4]; No motesanib (0 mg QD), n 4): 56.5 (39.6) μg/mL
Serum panitumumab, Cycle 2 postdose mean concentration (SD) ([4]; No motesanib (0 mg QD), n 6): 186 (62.9) μg/mL
Serum panitumumab, Cycle 2 predose mean concentration (SD) ([4]; No motesanib (0 mg QD), n 6): 11.2 (15.5) μg/mL
Serum panitumumab, Cycle 1 postdose mean concentration (SD) ([4]; No motesanib (0 mg QD), n 8): 206 (76.4) μg/mL
Serum panitumumab, Cycle 4 postdose mean concentration (SD) ([4]; with motesanib 50 mg QD, n 3): 232 (52.8) μg/mL
Serum panitumumab, Cycle 4 predose mean concentration (SD) ([4]; with motesanib 50 mg QD, n 3): 10.5 (6.4) μg/mL
Serum panitumumab, Cycle 2 postdose mean concentration (SD) ([4]; with motesanib 50 mg QD, n 5): 193 (37.5) μg/mL
Serum panitumumab, Cycle 1 postdose mean concentration (SD) ([4]; with motesanib 50 mg QD, n 7): 174 (24.9) μg/mL
Serum panitumumab, Cycle 2 predose mean concentration (SD) ([4]; with motesanib 50 mg QD, n 7): 9.0 (5.8) μg/mL
Serum panitumumab, Cycle 2 postdose mean concentration ([4]; with motesanib 75 mg BID, n 1): 217 (NR) μg/mL
Serum panitumumab, Cycle 2 predose mean concentration ([4]; with motesanib 75 mg BID, n 1): 11.2 (NR) μg/mL
Serum panitumumab, Cycle 1 postdose mean concentration ([4]; with motesanib 75 mg BID, n 2): 189 (NR) μg/mL
Serum panitumumab, Cycle 4 predose mean concentration (SD) ([4]; with motesanib 75 mg QD, n 5): 32.5 (21.3) μg/mL
Serum panitumumab, Cycle 1 postdose mean concentration (SD) ([4]; with motesanib 75 mg QD, n 6): 158 (24.2) μg/mL
Serum panitumumab, Cycle 2 postdose mean concentration (SD) ([4]; with motesanib 75 mg QD, n 6): 194 (21.5) μg/mL
Serum panitumumab, Cycle 2 predose mean concentration (SD) ([4]; with motesanib 75 mg QD, n 6): 13.1 (13.5) μg/mL
Serum panitumumab, Cycle 4 postdose mean concentration (SD) ([4]; with motesanib 75 mg QD, n 6): 218 (26.1) μg/mL
Serum panitumumab, Cycle 4 postdose mean concentration ([4]; with motesanib 100 mg QD, n 2): 290 (NR) μg/mL
Serum panitumumab, Cycle 2 postdose mean concentration (SD) ([4]; with motesanib 100 mg QD, n 4): 224 (51.8) μg/mL
Serum panitumumab, Cycle 4 predose mean concentration (SD) ([4]; with motesanib 100 mg QD, n 4): 41.6 (16.5) μg/mL
Serum panitumumab, Cycle 1 postdose mean concentration (SD) ([4]; with motesanib 100 mg QD, n 5): 194 (27.1) μg/mL
Serum panitumumab, Cycle 2 predose mean concentration (SD) ([4]; with motesanib 100 mg QD, n 5): 18.9 (10.7) μg/mL
Serum panitumumab, Cycle 4 postdose mean concentration (SD) ([4]; with motesanib 125 mg QD, n 3): 170 (55.0) μg/mL
Serum panitumumab, Cycle 4 predose mean concentration (SD) ([4]; with motesanib 125 mg QD, n 3): 21.7 (22.0) μg/mL
Serum panitumumab, Cycle 2 postdose mean concentration (SD) ([4]; with motesanib 125 mg QD, n 6): 213 (39.0) μg/mL
Serum panitumumab, Cycle 2 predose mean concentration (SD) ([4]; with motesanib 125 mg QD, n 6): 13.4 (14.2) μg/mL
Serum panitumumab, Cycle 1 postdose mean concentration (SD) ([4]; with motesanib 125 mg QD, n 11): 203 (82.9) μg/mL
